Reference: article PMC10996255

Target: Recombinant human HER2 (human) (UniProt P04626)
Assay: ELISA; recombinant HER2 (50 ng/well) coated in PBS pH 7.4; scFv or conjugate 250 to 0.005 nM, 4-fold dilutions in 5% skim milk in PBST, room temperature; detected by rabbit anti-His-tag antibody and HRP-linked anti-rabbit IgG

**Q.** How did the EC50 turn out when “4D5scFv-G178-HSA (from UniProt P02768 25-609)” was run?
**A.** 1.47 nM
